{"source": "the nanobody polyreactivity screen of Harvey et al. (2022)", "data": [{"experiment": "yeast display, Sf9 membrane polyspecificity reagent, FACS + sequencing; frameworks hold sequencing errors", "summary_of_the_method": "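In a synthetic yeast display library (Saccharomyces cerevisiae BJ5465), nanobody expression was induced with galactose for 36–48 hours. FACS gates were set low and high (top ~1%) using anti-HA fluorescence for expression and streptavidin fluorescence for binding of the Sf9 membrane reagent. Each polyreactivity label is drawn from the gate of origin.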", "values": [{"sequence": "KVQLVESGGGLVQAGGSLRLSCAASGLTFSFYAMGWYRQAPGKERELVAAITYSGDSTYYADSVKGRFTISRDNAKNTVYLQLNSLKPEDTAVYYCAAYVYQTPHSLHIYEYWGQGTQVTVSS", "polyreactivity (PSR sort gate)": "low polyreactivity"}, {"sequence": "KVQLVESGGGLVQAGGSLRLSCAASGRIFYYNAMGWYRQAPGKERELVAVITGGGSTNYADSVKGRFTISRDNAKNTVYLQMNSLKPEDTAGYYCAARRAWGTKYHGYDYWGQGTQVNVSS", "polyreactivity (PSR sort gate)": "low polyreactivity"}, {"sequence": "KVQLVESGGGLVQAGGSLRLSCAASGSIFTYYAMGWDRQAPGKERELVAAISIGGRTDYADSVKGRFTISRDNAKNTVSLQMNSLKPEDTAVYYCVAKGHLDSGGYEYYYWRQGTQVTVSS", "polyreactivity (PSR sort gate)": "low polyreactivity"}, {"sequence": "KVQLVESGGGLVQAGGSLRLSCAASGSTFSLYAMGWYRQAPGKERELVASIRWSGGRTYYADSVKGRFTISRDNAKNTVYLQMKSLKPEDTAVYYCAAAWRYGYGYWGQGTQVTVSS", "polyreactivity (PSR sort gate)": "high polyreactivity"}, {"sequence": "KVQLVESGGGLVQAGGSLRLSCAASGYIVSYYDMGWYRQAPGKERELVAAITAGVAGTYYADSVKGRLTISRDNAKNSVYLQMNSLTPEDTAVFYCAADRYITTVVRMYYSGQGTQVTVSS", "polyreactivity (PSR sort gate)": "low polyreactivity"}, {"sequence": "KVQLVESGGGLVQAGGSLRLSCADSGIFRYYAMGWYRQAPGKEREFVAAMTRGGSTNYADSVKGRFTISRDNAKNSVYLQMNSLKPEDTEVYYCARDGYREFDWGQGTQVTVSS", "polyreactivity (PSR sort gate)": "high polyreactivity"}, {"sequence": "KVQLVESGGGLVQAGGSLRLSCPASGITFYRYVMGWYRQAPGTERELVAAISSGGRTYYADSVKGRFTISRDNAKNTVYLQMNSLKPEDNAVYYCNRAAFQTRYESWGQGTQVTVSS", "polyreactivity (PSR sort gate)": "high polyreactivity"}, {"sequence": "KVQLVESGRGLVQAGGSLLLICAASGSTFVDYAMGWYRQAPGKERELVAGINVSGGSTYYSDYVKGSFTISRDNSNNPVYLQMNSLNPEDTAVYYCAKVVSNRLALPAWDYNYWGQGTKVTVSS", "polyreactivity (PSR sort gate)": "low polyreactivity"}, {"sequence": "KVQLVESGVGLVQAGGSLRLSCAPSGSIFKYYAMGWYRQAPGKERELVAAITDRGSSTYYADSVKGRFTISRDNAKTTVYLQMNSLKPEDTAVYYCAAETYVCIYWPYVKYYYWGQGTQVNVSS", "polyreactivity (PSR sort gate)": "high polyreactivity"}, {"sequence": "KVQLVESVGGLVQAGGSLRLSCAASGRIFGVNAMGWYRQAPGKERELVAAIRSGDSTNYADSVKGRFTISRDNAKNTVYLQMNSLKPEDTAVYYCATDLYFDLRYDYWGQGTQVTVSS", "polyreactivity (PSR sort gate)": "low polyreactivity"}, {"sequence": "KVQVVESGGGFVQAGGSLGLSCAASGRIFGVYAMGWYTQAPGKERELVAAINYSGTRTYYADSVKGRFTISRDNGKNTVYLQMNSLKPEDSAVYYCGARRGSYSVTEYWGQGTQVNVSS", "polyreactivity (PSR sort gate)": "high polyreactivity"}, {"sequence": "LVHLQESGGGLVLAGGGLRLSCAASGNIFTYVIMGWYRQPAGKERELVAAITYGTITNYADSVKGPFTISRDNAKNTVYLQMNCLKPEDTAVYHCAVQSTRIVPRHYYCGQGTQVTVSS", "polyreactivity (PSR sort gate)": "high polyreactivity"}, {"sequence": "LVQHVESGGGIVQAGGSLRLTCAASGSIFASYAMGWYRLAPGKEREFVAAISRRSGSTYYSDSVKGRFTISRDYAKNTVYLQLKSLKPEDTAVYDCAGALYYGYDHYNYWGQGTQVTVSS", "polyreactivity (PSR sort gate)": "high polyreactivity"}, {"sequence": "LVQHVESGGGLVKAGGSLRLTCSASGITFARYAMGWYRQAPGNERELVAAISRSVGSTYADSVKGRFTTSRDNAKNTVYLKMNSLKPEDTAVYYCHARYKSRLYPRYDYWGQGTQVTVSS", "polyreactivity (PSR sort gate)": "high polyreactivity"}, {"sequence": "LVQLLESGGGLVQAGGSLRLSCAASGRIFTGYALGWDRQAPGKDRELVASITWRGASTYYADSVKGRFTISRDNAKTTVFLQKNCLNPEDTAVDYCNVGASARKAYEYWGQGTQVTVSS", "polyreactivity (PSR sort gate)": "high polyreactivity"}, {"sequence": "LVQLQESAGGLVQAGGSLRLSCAASGSISVTRAMCWYRQAPGNERELVASTTGGSNNADSVNGRFTISRDNAKNTVYLQMNSLKPEDTAVYYCAAAVGVGRSGGTYDYWGQGTQVTVSS", "polyreactivity (PSR sort gate)": "low polyreactivity"}, {"sequence": "LVQLQESGGGLVQAGGSLRLSCAASGTISQGGYMGWYRQAPGKERELVASINVGGSTNYADSVKGRFTISRDNAKNTVYLQMNSLKPEDNAVYYCAVWGRNRLQLSYWGQGTQVTVSS", "polyreactivity (PSR sort gate)": "low polyreactivity"}, {"sequence": "LVQLVESGGGLVQAGGSLRLICAAYGSIFALNSLGWYSQAPGKERELVAAISRGDGTKYEHTVKGRFTISRDNAKTTVYLQMTSLKPEYTAVYYCAKDYWFRWRWPYNHWGLGTQVTVSS", "polyreactivity (PSR sort gate)": "low polyreactivity"}, {"sequence": "LVQLVESGGGLVQAGGSLRLSCAASGRIFLKYAMGWYRQSPGKERELVAAISRRGASTYYADSVKGRFTISRDYGKNSVYLLMKSLKPDDTAVYYCNARTSSGMDYWGQGTQVTVSS", "polyreactivity (PSR sort gate)": "high polyreactivity"}, {"sequence": "LVQLVESGGGLVQAGGSLRLSCAASGSIFRRYAMGWYRQAPGKERELVAAISRNSGRTYYADSVKGRFTISRDNAKNTVYLQTNSLKPEDTAVYYCAKLTLSSRWYYIYDYWGQGTQVTVSS", "polyreactivity (PSR sort gate)": "high polyreactivity"}, {"sequence": "PVQLQESGGGLVQAGGSLRLSCAASGNIFDADIMGWYRQAPGKERELVACIADGGSTNYADSVKGRFTISRDNAKNTVYLQMNSLKPEDTAVYYCAAIAYPYIPNCFDYDSDYFFRGQGTQVTVSS", "polyreactivity (PSR sort gate)": "low polyreactivity"}, {"sequence": "PVQLVESGGGLVEAGGSLLLSCAASGSTFREYTMGWYRQAPGKERELVAAITNSGGSTYYADSVKGRFTISRDIAKYTVYLQMNSLKPDDTSVYYFAAEVGIVDYDYWGQGTKVTVSS", "polyreactivity (PSR sort gate)": "low polyreactivity"}, {"sequence": "PVQLVESGGGLVQAGGRLRLSCASSGLTFYYYAMGWYLQSPGKESELVAALSRSGGSTYYADSVKGRFTISRDNAQNTVYLQMISLKPEDTAVYYCAAREPYEVLLYYYEDYYWGQGTQVTVSS", "polyreactivity (PSR sort gate)": "high polyreactivity"}, {"sequence": "PVQLVESGGGLVQAGGSLRLSCAASGFTFDENAMGWYRQAPGITYSGASTYYADSVKGPYTISRANAQNTVYLQMNSLKPEDTAVYYCAAEVVAQMNYWGQGTQVTVSS", "polyreactivity (PSR sort gate)": "low polyreactivity"}, {"sequence": "PVQLVESGGGLVQAGGSLRLSCAASGITFYRYMGWYRQAPGKERELVASITGRGGSTYYADSVKGRFTISRDNAKNTVYLQMNSLKPEDTAVYYCAAVFPTKSSTWYDFWGEGTQVTVSS", "polyreactivity (PSR sort gate)": "high polyreactivity"}, {"sequence": "PVQLVESGGGLVQAGGSLRLSCAASGRTVGYAMGWYRQSPWKERELVARINRTTGSTYYADSVKGRFTISRDNAKNTVYLQMKRLKPEDTAVYYCNAKSYYYSRWSRYYCTGYYYWGQGTQVTVSS", "polyreactivity (PSR sort gate)": "high polyreactivity"}, {"sequence": "PVQLVESGGGLVQAGGSLRLSCAASGSIFTAYDMGWYRQAPGKERELVAAINVSAGTTYYADSVKGRFTISRDNAKKTVYLQMISLIPEDTAVYYCAARDISLNAVGLPKEYNRDYWGQGTQVTVSS", "polyreactivity (PSR sort gate)": "low polyreactivity"}, {"sequence": "PVQLVESGGGLVQAGGSLRLSCAASGSTFKRYAMGWYRQAPGKERELVAAISSGGTTYYADSVTGRFTISRDNAKNTVYLQMISLKPEDSAVYDCIARKYGWDQRILIYDYWGQGTQVTVSS", "polyreactivity (PSR sort gate)": "high polyreactivity"}, {"sequence": "PVQLVESGGGLVQAGGSLRLSCAASGSTFLYSAMGWYRQAPGKERELVAGISAAGGSSYYADAVKGRFTISRDNAKNTVYIQMNSLKPEDTAVYYCNATRVVIRHSYDYWGQGTQVTVSS", "polyreactivity (PSR sort gate)": "high polyreactivity"}, {"sequence": "PVQLVESGGGLVQAGGSLRLSCAASGSTIPSYAMGWYRQAPGKERELVASITYSDGTTRYADSVKGRFTISRDNAKNTVYLQMNSLKPEDTAVYYCNAVYYREGMDYWGQGTQVTVSS", "polyreactivity (PSR sort gate)": "low polyreactivity"}, {"sequence": "PVQLVESGGGLVQAGGSLRLSCAASGTIFFSNAMGWYRQAPGKEREFVATITSSGVGTYYADSVKGRFTISRDNAKNTVYLQMNSLTPEDTAVYYCAADLTISYSQEYYYWGQGTQVTVSS", "polyreactivity (PSR sort gate)": "low polyreactivity"}, {"sequence": "PVQLVESGGGLVQAGGSLSLICAASGRIFYMYAMRCYRPAPAKERELVAAITWSGGSTTYADSVKGRFTISRDNAKNTVYLQMNSLKPEDTSVYYCNAEGWIFPSFSPMDYWGQGTQVTVSS", "polyreactivity (PSR sort gate)": "low polyreactivity"}, {"sequence": "PVQLVESGGGLVQAGGSLSLTCAASGIIFPVYAMGWYIQAPGKERELVAAITYSGDRTYYADSVKGRFTISRDNAKYTVYLQMNSLKPEDTAVDYFNARFGVWPYFYNEDDYLGQGTQVTVSS", "polyreactivity (PSR sort gate)": "low polyreactivity"}, {"sequence": "PVQLVESGGGLVQAGVSLRLSGAASGFIFYYYAMGWYSQAPGKEREFVAAISQSVGSTYYADSVKGRFTISRDNANNTVYLQMNSLKPADTAVYYCNARGWIPARGWDDYYWGQGTQVTVSS", "polyreactivity (PSR sort gate)": "high polyreactivity"}, {"sequence": "PVQLVETGGGLVQAGGSLRLSCAASGGIFTLYVLGWYRQPPGKERELVAAISRTGGSTYYADSVKARFTISRDNAKNTVYLQMNSLKPEDTAVYYCAADYRQPSAFYYWGQGTQVTVSS", "polyreactivity (PSR sort gate)": "high polyreactivity"}, {"sequence": "PVQVVESGGVLVQAGGSRRLSCAAAGGNFYGNVMGWYRQAPGKERELVADITSVSSTYYADSVKGRFTISRDNAKNTVFLQMKRLKPEDTAVYYCAPEPDHVADSHSGYDYWGQGTQVTVSS", "polyreactivity (PSR sort gate)": "low polyreactivity"}, {"sequence": "QAQLHESAGGLVQAGGCLRLSCAASGYFSKKWGMGWYRKAPGKERELVATIAKGASTYYADSMKGRFTISRDNAKYTMYRQMNSLKPEDTAVYYCGATQQDDQGLGYWGQDTQVTVSS", "polyreactivity (PSR sort gate)": "high polyreactivity"}, {"sequence": "QAQLQEIGGSLVQAGGGLRLSCEASGYISVGSVMGWYRQAPSKERELVASIDQGANTNYADSVKGRFTISRDNEKNNVYLQMKSLKPEDTAVYYCATETTYILNDWGQGTQVTVSS", "polyreactivity (PSR sort gate)": "low polyreactivity"}, {"sequence": "QAQLQESGGSLVQAGGGLRLSCAASGYISVGSVMGWYRQAPSKERELVASIDQGANTNYADSVKGRFTISRDNAKNNVYLQMNSLKPEDSAVYYCATETTYILNYWGQGTQVTVSS", "polyreactivity (PSR sort gate)": "low polyreactivity"}, {"sequence": "QAQLQESGGSLVQAGGGMRLSCAASGYISVGSVMGWYRQAPSKERELVASIDQGANTNYADSVKGRFTISRDNAKNNVYLQMNSLKPEDTAVYYCATETTYILNYWGQGTQVTVSS", "polyreactivity (PSR sort gate)": "low polyreactivity"}, {"sequence": "QAQLVESGGGLVQAGGRLRLICAASGSIFAGYAMGWSRQAPGKERELVATITSSSRTNYADSVKGRFSISRDNAKNNVYLQMNILKPEETAVSYCAARGRSVIDVYRMYYWGQGTKVTVSS", "polyreactivity (PSR sort gate)": "high polyreactivity"}, {"sequence": "QAQLVESGGGLVQAGGSLRLSCAASGSTSLDNAMGWYRQAPGKERELVAAIRWRGSITFYADSVKGRFTISRDNAKNTVYLQMNSLKPEDTAVYYCAVTLRYTRSGAYDYWGQGTQVTVSS", "polyreactivity (PSR sort gate)": "low polyreactivity"}, {"sequence": "QAQLVESGGGLVQEGGSLRLSCAASGSIFYGYAMGWSRQAPGKERELVATIRFITGSTYYADSVKGRFTISRDNAKNTVYLQMNSLKPEDTAVYYCAAVYVGYYDNYDYWGQGTQVTVSS", "polyreactivity (PSR sort gate)": "low polyreactivity"}]}]}
